# Assay results as given in PMC9352680, “A comprehensive thermodynamic model for RNA binding by the Saccharomyces cerevisiae Pumilio protein PUF4”.
# T1: PUF4 RNA-binding domain (Saccharomyces cerevisiae, UniProt P25339 537-888)
# T1 sequence: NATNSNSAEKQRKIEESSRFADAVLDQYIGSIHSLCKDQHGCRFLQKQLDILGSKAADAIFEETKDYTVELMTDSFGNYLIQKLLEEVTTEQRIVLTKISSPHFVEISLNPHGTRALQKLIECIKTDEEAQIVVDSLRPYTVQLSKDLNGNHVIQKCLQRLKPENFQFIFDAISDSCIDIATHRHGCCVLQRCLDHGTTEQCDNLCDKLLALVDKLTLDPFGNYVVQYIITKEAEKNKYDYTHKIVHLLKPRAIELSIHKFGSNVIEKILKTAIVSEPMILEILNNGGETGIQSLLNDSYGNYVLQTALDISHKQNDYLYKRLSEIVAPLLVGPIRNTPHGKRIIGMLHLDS
# Molecular target: T1, PUF4 RNA-binding domain
# Test: Mg; RNA-MaP; 20 mM Na-HEPES pH 7.4, 30 mM KOAc, 0.75 mM MgCl2, 0.1% Tween-20, 5% glycerol, 0.1 mg/mL BSA, 2 mM DTT; 25 C; 0.0125-409.6 nM protein
# Details: tags: N-His6-TEV cleaved; C-SNAP kept, Cy3B-labelled; label: tethered on chip by stalled RNA polymerase
row,Binder,Kd [nM]
1,UCUCUUUAUAUUUUUAUCUCUU (ssRNA) [Ib_S1_P5E.1_K5.1_C5.1_H5.1_[G2A]_A5.1_[A7T]_F5.1_T5.1],742
2,Id_ii_S4_P5E.2_K5.1_C5.2_[C-2G]_[T-1C]_H5.1_A5.1_F5.1_T5.2_[T11A]_[A12T] (ssRNA) RNA: UUUGACAACUGAUCGUUCUUUCUGCUGUAUUAUUAAUUUCUUUCUCGAUCAGUUGUCUUU,3.13
3,Id_ii_S4_P5E.2_K5.1_C5.2_[C-2T]_[T-1G]_H5.1_A5.1_F5.1_T5.2_[T11G]_[A12T] (ssRNA) RNA: UUUGACAACUGAUCGUUCUUUCUUGUGUAUUAUUAGUUUCUUUCUCGAUCAGUUGUCUUU,1.51
4,Id_ii_S4_P5E.2_K5.1_C5.2_[C-2G]_[T-1C]_H5.1_A5.1_F5.1_T5.2_[A12C] (ssRNA) RNA: UUUGACAACUGAUCGUUCUUUCUGCUGUAUUAUUAUCUUCUUUCUCGAUCAGUUGUCUUU,5.29
5,Id_ii_S4_P5E.2_K5.1_C5.2_[C-2T]_[T-1G]_H5.1_A5.1_F5.1_T5.2_[T11G]_[A12C] (ssRNA) RNA: UUUGACAACUGAUCGUUCUUUCUUGUGUAUUAUUAGCUUCUUUCUCGAUCAGUUGUCUUU,2.47
6,Id_ii_S4_P5E.2_K5.1_C5.2_[C-2G]_H5.1_A5.1_F5.1_T5.2_[T11A] (ssRNA) RNA: UUUGACAACUGAUCGUUCUUUCUGUUGUAUUAUUAAAUUCUUUCUCGAUCAGUUGUCUUU,6.57
7,Id_ii_S4_P5E.2_K5.1_C5.2_[C-2G]_H5.1_A5.1_F5.1_T5.2_[A12T] (ssRNA) RNA: UUUGACAACUGAUCGUUCUUUCUGUUGUAUUAUUAUUUUCUUUCUCGAUCAGUUGUCUUU,1.91
8,Id_ii_S4_P5E.2_K5.1_C5.2_[C-2T]_[T-1G]_H5.1_A5.1_F5.1_T5.2_[T11A]_[A12C] (ssRNA) RNA: UUUGACAACUGAUCGUUCUUUCUUGUGUAUUAUUAACUUCUUUCUCGAUCAGUUGUCUUU,3.09
9,UCUCUUUAUAUUCUUAUCUCUU (ssRNA) [Ib_S1_P5E.1_K5.1_C5.1_H5.1_[G2A]_A5.1_[A7C]_F5.1_T5.1],801
10,Id_ii_S4_P4E.4_K4.3_C4.2_[C-2G]_H4.3_A4.1_F4.1_T4.2_[G10T] (ssRNA) RNA: UUUGACAACUGAUCGUUCUUUCUGUACACUAUUAUUUUCUUUCUCGAUCAGUUGUCUUU,0.388
11,Id_ii_S4_P4E.4_K4.3_C4.2_[C-2T]_[T-1C]_H4.3_A4.1_F4.1_T4.2_[G10T]_[T11C] (ssRNA) RNA: UUUGACAACUGAUCGUUCUUUCUUCACACUAUUAUCUUCUUUCUCGAUCAGUUGUCUUU,> 2300
12,Id_ii_S4_P4E.4_K4.3_C4.2_[C-2A]_H4.3_A4.1_F4.1_T4.2_[G10A] (ssRNA) RNA: UUUGACAACUGAUCGUUCUUUCUAUACACUAUUAAUUUCUUUCUCGAUCAGUUGUCUUU,28.2
13,Id_ii_S4_P4E.4_K4.3_C4.2_[C-2T]_[T-1C]_H4.3_A4.1_F4.1_T4.2_[G10A]_[T11C] (ssRNA) RNA: UUUGACAACUGAUCGUUCUUUCUUCACACUAUUAACUUCUUUCUCGAUCAGUUGUCUUU,2110
14,Id_ii_S4_P4E.4_K4.3_C4.2_[C-2G]_H4.3_A4.1_F4.1_T4.2_[G10A]_[T11C] (ssRNA) RNA: UUUGACAACUGAUCGUUCUUUCUGUACACUAUUAACUUCUUUCUCGAUCAGUUGUCUUU,1.54
15,Id_ii_S4_P4E.3_K4.2_C4.2_[T-1A]_H4.2_A4.1_F4.1_T4.2_[G10C]_[T11A] (ssRNA) RNA: UUUGACAACUGAUCGUUCUUUCUCAUAUAUAUUACAUUCUUUCUCGAUCAGUUGUCUUU,23
16,Id_ii_S4_P4E.3_K4.2_C4.2_H4.2_A4.1_F4.1_T4.2_[T11C] (ssRNA) RNA: UUUGACAACUGAUCGUUCUUUCUCUUAUAUAUUAGCUUCUUUCUCGAUCAGUUGUCUUU,5.07
17,Id_ii_S4_P4E.4_K4.3_C4.2_[C-2A]_H4.3_A4.1_F4.1_T4.2_[G10C]_[T11C] (ssRNA) RNA: UUUGACAACUGAUCGUUCUUUCUAUACACUAUUACCUUCUUUCUCGAUCAGUUGUCUUU,14.9
18,Id_ii_S4_P4E.4_K4.3_C4.2_[T-1G]_H4.3_A4.1_F4.1_T4.2_[G10C]_[T11A] (ssRNA) RNA: UUUGACAACUGAUCGUUCUUUCUCGACACUAUUACAUUCUUUCUCGAUCAGUUGUCUUU,> 2300
19,Id_ii_S4_P4E.4_K4.3_C4.2_[C-2G]_H4.3_A4.1_F4.1_T4.2_[G10T]_[T11A] (ssRNA) RNA: UUUGACAACUGAUCGUUCUUUCUGUACACUAUUAUAUUCUUUCUCGAUCAGUUGUCUUU,0.647
20,Id_ii_S4_P4E.4_K4.3_C4.2_H4.3_A4.1_F4.1_T4.2_[G10A]_[T11C] (ssRNA) RNA: UUUGACAACUGAUCGUUCUUUCUCUACACUAUUAACUUCUUUCUCGAUCAGUUGUCUUU,1210
21,Id_ii_S4_P4E.4_K4.3_C4.2_[C-2G]_[T-1C]_H4.3_A4.1_F4.1_T4.2_[G10C]_[T11G] (ssRNA) RNA: UUUGACAACUGAUCGUUCUUUCUGCACACUAUUACGUUCUUUCUCGAUCAGUUGUCUUU,2000
22,Id_ii_S4_P4E.4_K4.3_C4.2_[T-1C]_H4.3_A4.1_F4.1_T4.2_[G10C]_[T11C] (ssRNA) RNA: UUUGACAACUGAUCGUUCUUUCUCCACACUAUUACCUUCUUUCUCGAUCAGUUGUCUUU,1360
23,Id_ii_S4_P4E.4_K4.3_C4.2_[T-1A]_H4.3_A4.1_F4.1_T4.2_[T11C] (ssRNA) RNA: UUUGACAACUGAUCGUUCUUUCUCAACACUAUUAGCUUCUUUCUCGAUCAGUUGUCUUU,> 2300
24,Id_ii_S4_P4E.4_K4.3_C4.2_[C-2G]_H4.3_A4.1_F4.1_T4.2_[G10A]_[T11A] (ssRNA) RNA: UUUGACAACUGAUCGUUCUUUCUGUACACUAUUAAAUUCUUUCUCGAUCAGUUGUCUUU,0.535

row,Binder,Kd [nM]
1,Id_ii_S4_P4E.4_K4.3_C4.2_[C-2T]_[T-1A]_H4.3_A4.1_F4.1_T4.2_[G10C]_[T11A] (ssRNA) RNA: UUUGACAACUGAUCGUUCUUUCUUAACACUAUUACAUUCUUUCUCGAUCAGUUGUCUUU,> 2300
2,Id_ii_S4_P4E.4_K4.3_C4.2_[T-1C]_H4.3_A4.1_F4.1_T4.2_[G10T]_[T11A] (ssRNA) RNA: UUUGACAACUGAUCGUUCUUUCUCCACACUAUUAUAUUCUUUCUCGAUCAGUUGUCUUU,728
3,Id_ii_S4_P4E.4_K4.3_C4.2_[C-2G]_[T-1C]_H4.3_A4.1_F4.1_T4.2_[G10T]_[T11A] (ssRNA) RNA: UUUGACAACUGAUCGUUCUUUCUGCACACUAUUAUAUUCUUUCUCGAUCAGUUGUCUUU,28.5
4,Id_ii_S4_P4E.4_K4.3_C4.2_[C-2A]_[T-1C]_H4.3_A4.1_F4.1_T4.2_[G10C] (ssRNA) RNA: UUUGACAACUGAUCGUUCUUUCUACACACUAUUACUUUCUUUCUCGAUCAGUUGUCUUU,> 2300
5,Id_ii_S4_P4E.4_K4.3_C4.2_[T-1C]_H4.3_A4.1_F4.1_T4.2_[G10C] (ssRNA) RNA: UUUGACAACUGAUCGUUCUUUCUCCACACUAUUACUUUCUUUCUCGAUCAGUUGUCUUU,> 2300
6,Id_ii_S4_P4E.4_K4.3_C4.2_[C-2T]_[T-1A]_H4.3_A4.1_F4.1_T4.2_[G10A]_[T11C] (ssRNA) RNA: UUUGACAACUGAUCGUUCUUUCUUAACACUAUUAACUUCUUUCUCGAUCAGUUGUCUUU,> 2300
7,If_S4_P4E.3_K4.2_C4.2_H4.2_A4.1_F4.1_T4.2 (ssRNA) RNA: UUUGACAACUGAUCGUUCUUUCUCUUAUAUAUUAGUUUCUUUCUCGAUCAGUUGUCUUU,8.97
8,Id_ii_S4_P4E.4_K4.3_C4.2_[T-1A]_H4.3_A4.1_F4.1_T4.2_[G10C] (ssRNA) RNA: UUUGACAACUGAUCGUUCUUUCUCAACACUAUUACUUUCUUUCUCGAUCAGUUGUCUUU,> 2300
9,Id_ii_S4_P4E.4_K4.3_C4.2_[C-2G]_H4.3_A4.1_F4.1_T4.2_[G10C]_[T11C] (ssRNA) RNA: UUUGACAACUGAUCGUUCUUUCUGUACACUAUUACCUUCUUUCUCGAUCAGUUGUCUUU,1.02
10,Id_ii_S4_P4E.3_K4.2_C4.2_H4.2_A4.1_F4.1_T4.2_[G10A] (ssRNA) RNA: UUUGACAACUGAUCGUUCUUUCUCUUAUAUAUUAAUUUCUUUCUCGAUCAGUUGUCUUU,10.8
11,Id_ii_S4_P4E.3_K4.2_C4.2_H4.2_A4.1_F4.1_T4.2_[G10T]_[T11C] (ssRNA) RNA: UUUGACAACUGAUCGUUCUUUCUCUUAUAUAUUAUCUUCUUUCUCGAUCAGUUGUCUUU,6.46
12,Id_ii_S4_P4E.4_K4.3_C4.2_[C-2T]_[T-1A]_H4.3_A4.1_F4.1_T4.2_[G10T]_[T11C] (ssRNA) RNA: UUUGACAACUGAUCGUUCUUUCUUAACACUAUUAUCUUCUUUCUCGAUCAGUUGUCUUU,> 2300
13,Id_ii_S4_P4E.4_K4.3_C4.2_[C-2T]_[T-1A]_H4.3_A4.1_F4.1_T4.2 (ssRNA) RNA: UUUGACAACUGAUCGUUCUUUCUUAACACUAUUAGUUUCUUUCUCGAUCAGUUGUCUUU,> 2300
14,Id_ii_S4_P4E.4_K4.3_C4.2_[C-2T]_[T-1A]_H4.3_A4.1_F4.1_T4.2_[G10T]_[T11A] (ssRNA) RNA: UUUGACAACUGAUCGUUCUUUCUUAACACUAUUAUAUUCUUUCUCGAUCAGUUGUCUUU,716
15,Id_ii_S4_P4E.4_K4.3_C4.2_H4.3_A4.1_F4.1_T4.2_[G10C]_[T11A] (ssRNA) RNA: UUUGACAACUGAUCGUUCUUUCUCUACACUAUUACAUUCUUUCUCGAUCAGUUGUCUUU,944
16,Id_ii_S4_P4E.3_K4.2_C4.2_H4.2_A4.1_F4.1_T4.2_[G10A]_[T11C] (ssRNA) RNA: UUUGACAACUGAUCGUUCUUUCUCUUAUAUAUUAACUUCUUUCUCGAUCAGUUGUCUUU,15.9
17,Id_ii_S4_P4E.4_K4.3_C4.2_[T-1A]_H4.3_A4.1_F4.1_T4.2 (ssRNA) RNA: UUUGACAACUGAUCGUUCUUUCUCAACACUAUUAGUUUCUUUCUCGAUCAGUUGUCUUU,> 2300
18,Id_ii_S4_P4E.3_K4.2_C4.2_H4.2_A4.1_F4.1_T4.2_[G10C] (ssRNA) RNA: UUUGACAACUGAUCGUUCUUUCUCUUAUAUAUUACUUUCUUUCUCGAUCAGUUGUCUUU,5.15
19,Id_ii_S4_P4E.4_K4.3_C4.2_[T-1G]_H4.3_A4.1_F4.1_T4.2_[G10C]_[T11C] (ssRNA) RNA: UUUGACAACUGAUCGUUCUUUCUCGACACUAUUACCUUCUUUCUCGAUCAGUUGUCUUU,> 2300
20,Id_ii_S4_P4E.4_K4.3_C4.2_[T-1G]_H4.3_A4.1_F4.1_T4.2_[G10T] (ssRNA) RNA: UUUGACAACUGAUCGUUCUUUCUCGACACUAUUAUUUUCUUUCUCGAUCAGUUGUCUUU,> 2300
21,Id_ii_S4_P4E.4_K4.3_C4.2_[T-1C]_H4.3_A4.1_F4.1_T4.2_[G10A] (ssRNA) RNA: UUUGACAACUGAUCGUUCUUUCUCCACACUAUUAAUUUCUUUCUCGAUCAGUUGUCUUU,> 2300
22,UCUCUUUAUAUUGUUAUCUCUU (ssRNA) [Ib_S1_P5E.1_K5.1_C5.1_H5.1_[G2A]_A5.1_[A7G]_F5.1_T5.1],846
23,UCUCUUUGCAAUAUUAUCUCUU (ssRNA) [Ib_S1_P5E.1_K5.1_C5.1_H5.1_[T3C]_A5.1_[T5A]_F5.1_T5.1],1370
